Measured values published in FireProtDB (doi:10.1021/bi980431i).

B1: Lysozyme C, P61626 (parent)
chain: MKALIVLGLVLLSVTVQGKVFERCELARTLKRLGMDGYRGISLANWMCLAKWESGYNTRATNYNAGDRSTDYGIFQINSRYWCNDGKTPGAVNACHLSCSALLQDNIADAVACAKRVVRDPQGIRAWVAWRNRCQNRDVRQYVQGCGV

Variants of: B1
Conditions: Homo sapiens; pH 2.7; 64.9 °C; Thermal; DSC; glycine 0.05 M; reversible: yes; structure 1LZ1; whole UniProt chain shown

| Variant | ddG of mutation (higher = less stable) [kcal/mol] | heat capacity change of unfolding [kcal/mol/K] |
| --- | --- | --- |
| Y56F | 0.19 | 1.29 |
| Y81F | 0.24 | 1.53 |
| Y72F | 0.96 | 1.67 |

Same assay, conditions: Homo sapiens; pH 2.7; Thermal; DSC; glycine 0.05 M; reversible: yes; structure 1LZ1; whole UniProt chain shown

| Variant | Tm [°C] | change of melting temperature, mutant - wild type (higher = more stable) [°C] | heat capacity change of unfolding [kcal/mol/K] | unfolding enthalpy (calorimetric) [kcal/mol] | unfolding enthalpy (van 't Hoff) [kcal/mol] |
| --- | --- | --- | --- | --- | --- |
| Y56F | 64.3 | -0.6 | 1.29 | 114 | 117 |
| Y81F | 64.2 | -0.7 | 1.53 | 111 | 117 |
| Y72F | 61.9 | -3 | 1.67 | 110 | 117 |

Same assay, conditions: Homo sapiens; pH 2.71; Thermal; DSC; glycine 0.05 M; reversible: yes; structure 1LZ1; whole UniProt chain shown

| Variant | Tm [°C] | heat capacity change of unfolding [kcal/mol/K] | unfolding enthalpy (calorimetric) [kcal/mol] | unfolding enthalpy (van 't Hoff) [kcal/mol] |
| --- | --- | --- | --- | --- |
| Y56F | 64.6 | 1.03 | 113 | 117 |

Same assay, conditions: Homo sapiens; pH 2.92; Thermal; DSC; glycine 0.05 M; reversible: yes; structure 1LZ1; whole UniProt chain shown

| Variant | Tm [°C] | heat capacity change of unfolding [kcal/mol/K] | unfolding enthalpy (calorimetric) [kcal/mol] | unfolding enthalpy (van 't Hoff) [kcal/mol] |
| --- | --- | --- | --- | --- |
| Y56F | 67.2 | 1.46 | 117 | 121 |

Same assay, conditions: Homo sapiens; pH 3.1; Thermal; DSC; glycine 0.05 M; reversible: yes; structure 1LZ1; whole UniProt chain shown

| Variant | Tm [°C] | heat capacity change of unfolding [kcal/mol/K] | unfolding enthalpy (calorimetric) [kcal/mol] | unfolding enthalpy (van 't Hoff) [kcal/mol] |
| --- | --- | --- | --- | --- |
| Y56F | 70.3 | 0.96 | 121 | 124 |

Same assay, conditions: Homo sapiens; pH 3.25; Thermal; DSC; glycine 0.05 M; reversible: Yes; structure 1LZ1; whole UniProt chain shown

| Variant | Tm [°C] | heat capacity change of unfolding [kcal/mol/K] | unfolding enthalpy (calorimetric) [kcal/mol] | unfolding enthalpy (van 't Hoff) [kcal/mol] |
| --- | --- | --- | --- | --- |
| Y56F | 72.4 | 1.12 | 123 | 126 |

Same assay, conditions: Homo sapiens; pH 2.58; Thermal; DSC; glycine 0.05 M; reversible: yes; structure 1LZ1; whole UniProt chain shown

| Variant | Tm [°C] | heat capacity change of unfolding [kcal/mol/K] | unfolding enthalpy (calorimetric) [kcal/mol] | unfolding enthalpy (van 't Hoff) [kcal/mol] |
| --- | --- | --- | --- | --- |
| Y81F | 61.9 | 1.53 | 106 | 112 |

Same assay, conditions: Homo sapiens; pH 3; Thermal; DSC; glycine 0.05 M; reversible: yes; structure 1LZ1; whole UniProt chain shown

| Variant | Tm [°C] | heat capacity change of unfolding [kcal/mol/K] | unfolding enthalpy (calorimetric) [kcal/mol] | unfolding enthalpy (van 't Hoff) [kcal/mol] |
| --- | --- | --- | --- | --- |
| Y81F | 69.5 | 0.6 | 117 | 122 |

Same assay, conditions: Homo sapiens; pH 3.17; Thermal; DSC; glycine 0.05 M; reversible: yes; structure 1LZ1; whole UniProt chain shown

| Variant | Tm [°C] | heat capacity change of unfolding [kcal/mol/K] | unfolding enthalpy (calorimetric) [kcal/mol] | unfolding enthalpy (van 't Hoff) [kcal/mol] |
| --- | --- | --- | --- | --- |
| Y81F | 72.7 | 0.67 | 123 | 129 |

Same assay, conditions: Homo sapiens; pH 2.69; Thermal; DSC; glycine 0.05 M; reversible: yes; structure 1LZ1; whole UniProt chain shown

| Variant | Tm [°C] | heat capacity change of unfolding [kcal/mol/K] | unfolding enthalpy (calorimetric) [kcal/mol] | unfolding enthalpy (van 't Hoff) [kcal/mol] |
| --- | --- | --- | --- | --- |
| Y72F | 61.7 | 0.89 | 105 | 112 |

Same assay, conditions: Homo sapiens; pH 2.82; Thermal; DSC; glycine 0.05 M; reversible: yes; structure 1LZ1; whole UniProt chain shown

| Variant | Tm [°C] | heat capacity change of unfolding [kcal/mol/K] | unfolding enthalpy (calorimetric) [kcal/mol] | unfolding enthalpy (van 't Hoff) [kcal/mol] |
| --- | --- | --- | --- | --- |
| Y72F | 64 | 1.91 | 108 | 114 |

Same assay, conditions: Homo sapiens; pH 2.99; Thermal; DSC; glycine 0.05 M; reversible: yes; structure 1LZ1; whole UniProt chain shown

| Variant | Tm [°C] | heat capacity change of unfolding [kcal/mol/K] | unfolding enthalpy (calorimetric) [kcal/mol] | unfolding enthalpy (van 't Hoff) [kcal/mol] |
| --- | --- | --- | --- | --- |
| Y72F | 67 | 1.34 | 114 | 120 |

Same assay, conditions: Homo sapiens; pH 3.13; Thermal; DSC; glycine 0.05 M; reversible: yes; structure 1LZ1; whole UniProt chain shown

| Variant | Tm [°C] | heat capacity change of unfolding [kcal/mol/K] | unfolding enthalpy (calorimetric) [kcal/mol] | unfolding enthalpy (van 't Hoff) [kcal/mol] |
| --- | --- | --- | --- | --- |
| Y72F | 69.1 | 1.12 | 117 | 124 |
